From patent US20210187118A1 (Daiichi Sankyo, published 2021)

Target: TA-MUC1 (tumor-associated MUC1) on human tumor cells (human, UniProt P15941 24-1255, aberrant tumor-associated O-glycosylation)
Assay: cell-based or functional assay

TA-MUC1 (tumor-associated MUC1) on human tumor cells, sequence (P15941 24-1255): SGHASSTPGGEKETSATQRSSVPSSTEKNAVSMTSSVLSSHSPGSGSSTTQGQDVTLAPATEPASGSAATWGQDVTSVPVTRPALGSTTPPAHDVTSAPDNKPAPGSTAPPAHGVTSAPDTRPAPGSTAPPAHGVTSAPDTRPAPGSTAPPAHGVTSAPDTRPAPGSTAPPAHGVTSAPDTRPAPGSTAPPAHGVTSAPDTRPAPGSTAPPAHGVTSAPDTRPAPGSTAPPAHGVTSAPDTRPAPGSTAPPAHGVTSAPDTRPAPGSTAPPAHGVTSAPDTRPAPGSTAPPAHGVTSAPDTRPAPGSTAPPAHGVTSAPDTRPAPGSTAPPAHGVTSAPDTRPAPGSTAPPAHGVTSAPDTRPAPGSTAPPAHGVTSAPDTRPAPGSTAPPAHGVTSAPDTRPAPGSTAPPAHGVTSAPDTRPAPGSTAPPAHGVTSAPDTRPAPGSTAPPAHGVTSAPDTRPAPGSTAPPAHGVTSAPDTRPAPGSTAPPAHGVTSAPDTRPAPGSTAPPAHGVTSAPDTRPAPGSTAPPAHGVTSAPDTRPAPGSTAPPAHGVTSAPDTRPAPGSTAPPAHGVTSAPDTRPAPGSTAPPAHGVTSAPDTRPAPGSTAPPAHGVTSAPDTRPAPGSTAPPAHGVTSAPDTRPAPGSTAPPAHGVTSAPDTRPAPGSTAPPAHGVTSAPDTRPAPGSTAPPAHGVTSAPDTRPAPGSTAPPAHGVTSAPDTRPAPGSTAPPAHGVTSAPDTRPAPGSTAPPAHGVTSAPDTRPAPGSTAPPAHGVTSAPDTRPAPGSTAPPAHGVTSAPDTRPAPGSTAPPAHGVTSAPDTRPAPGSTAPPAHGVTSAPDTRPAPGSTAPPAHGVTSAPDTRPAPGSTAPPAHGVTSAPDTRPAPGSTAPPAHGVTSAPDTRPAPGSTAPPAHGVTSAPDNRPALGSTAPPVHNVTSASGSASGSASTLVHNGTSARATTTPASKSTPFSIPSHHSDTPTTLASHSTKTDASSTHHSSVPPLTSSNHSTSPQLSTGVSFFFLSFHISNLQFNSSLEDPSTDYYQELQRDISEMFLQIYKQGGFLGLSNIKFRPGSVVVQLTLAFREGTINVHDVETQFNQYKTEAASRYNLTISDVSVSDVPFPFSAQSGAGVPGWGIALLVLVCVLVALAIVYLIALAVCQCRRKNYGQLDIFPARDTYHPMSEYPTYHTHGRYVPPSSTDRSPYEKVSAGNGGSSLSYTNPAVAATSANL

B1: PankoMab-ADC (antibody, human IgG1, kappa, V domains shown)
VH: EVQLVESGGGLVQPGGSMRLSCVASGFPFSNYWMNWVRQAPGKGLEWVGEIRLKSNNYTTHYAESVKGRFTISRDDSKNSLYLQMNSLKTEDTAVYYCTRHYYFDYWGQGTLVTVSS
VL: DIVMTQSPLSNPVTPGEPASISCRSSKSLLHSNGITYFFWYLQKPGQSPQLLIYQMSNLASGVPDRFSGSGSGTDFTLRISRVEAEDVGVYYCAQNLELPPTFGQGTKVEIKR
modifications: drug-linker of Formula 2 bound by thioether bonds; drug-linker of Formula 2 (maleimide-GGFG linker with DXd/exatecan derivative) bound by thioether bonds; average approximately 8 drug molecules per antibody; Fab N-glycan on Asn54 (position 57)
  IC50 of cytotoxic activity (cell viability, ATP assay, 6 days) on TA-MUC1 positive MDA-MB-468 cells: < 10 nM

B2: PM-N54Q-ADC (antibody, human IgG1, kappa, V domains shown)
VH: EVQLVESGGGLVQPGGSMRLSCVASGFPFSNYWMNWVRQAPGKGLEWVGEIRLKSNQYTTHYAESVKGRFTISRDDSKNSLYLQMNSLKTEDTAVYYCTRHYYFDYWGQGTLVTVSS
VL: DIVMTQSPLSNPVTPGEPASISCRSSKSLLHSNGITYFFWYLQKPGQSPQLLIYQMSNLASGVPDRFSGSGSGTDFTLRISRVEAEDVGVYYCAQNLELPPTFGQGTKVEIKR
modifications: drug-linker of Formula 2 bound by thioether bonds; drug-linker of Formula 2 (maleimide-GGFG linker with DXd/exatecan derivative) bound by thioether bonds; average approximately 8 drug molecules per antibody
  cytotoxic activity on HPAC and NCI-H441 cells, fold against PankoMab-ADC: > 1.5 fold
  potency ratio of PM-N54Q-ADC to PankoMab-ADC, cytotoxic activity on HPAC cells: 1.92 ratio
  potency ratio of PM-N54Q-ADC to PankoMab-ADC, cytotoxic activity on NCI-H441 cells: 1.66 ratio
